Measured values: patent publication US20070190601
Residue numbers refer to the chain shown, from its start.

What was measured:
Experiment in all cases: cell_activity
[1] = tested on: T1, NLS-int-2 MEPKKKRKV added upstream of -8 M (SEQ 58) (Streptomyces phage phiC31); conditions: DF-1 cells; 6 colonies avg
T1 sequence: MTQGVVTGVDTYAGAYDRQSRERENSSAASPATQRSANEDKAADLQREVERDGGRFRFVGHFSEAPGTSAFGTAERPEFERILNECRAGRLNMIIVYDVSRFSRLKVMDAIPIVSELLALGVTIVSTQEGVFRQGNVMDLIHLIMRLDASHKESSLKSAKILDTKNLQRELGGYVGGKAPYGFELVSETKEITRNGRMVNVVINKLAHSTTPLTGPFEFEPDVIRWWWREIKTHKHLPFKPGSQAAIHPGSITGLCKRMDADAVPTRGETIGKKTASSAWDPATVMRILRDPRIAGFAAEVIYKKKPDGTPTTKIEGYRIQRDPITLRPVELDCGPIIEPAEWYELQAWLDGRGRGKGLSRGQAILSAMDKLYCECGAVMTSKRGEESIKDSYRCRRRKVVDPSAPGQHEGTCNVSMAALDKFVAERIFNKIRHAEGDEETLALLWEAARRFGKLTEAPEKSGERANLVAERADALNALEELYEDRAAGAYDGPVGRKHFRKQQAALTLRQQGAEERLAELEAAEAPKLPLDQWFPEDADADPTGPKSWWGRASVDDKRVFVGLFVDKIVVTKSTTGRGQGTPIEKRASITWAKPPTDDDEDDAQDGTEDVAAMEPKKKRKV

[2] = tested on: T2, 3rdGTG-int-NLS PKKKRKV appended after A605 (Streptomyces phage phiC31); conditions: DF-1 cells; 10 colonies, one experiment
T2 sequence: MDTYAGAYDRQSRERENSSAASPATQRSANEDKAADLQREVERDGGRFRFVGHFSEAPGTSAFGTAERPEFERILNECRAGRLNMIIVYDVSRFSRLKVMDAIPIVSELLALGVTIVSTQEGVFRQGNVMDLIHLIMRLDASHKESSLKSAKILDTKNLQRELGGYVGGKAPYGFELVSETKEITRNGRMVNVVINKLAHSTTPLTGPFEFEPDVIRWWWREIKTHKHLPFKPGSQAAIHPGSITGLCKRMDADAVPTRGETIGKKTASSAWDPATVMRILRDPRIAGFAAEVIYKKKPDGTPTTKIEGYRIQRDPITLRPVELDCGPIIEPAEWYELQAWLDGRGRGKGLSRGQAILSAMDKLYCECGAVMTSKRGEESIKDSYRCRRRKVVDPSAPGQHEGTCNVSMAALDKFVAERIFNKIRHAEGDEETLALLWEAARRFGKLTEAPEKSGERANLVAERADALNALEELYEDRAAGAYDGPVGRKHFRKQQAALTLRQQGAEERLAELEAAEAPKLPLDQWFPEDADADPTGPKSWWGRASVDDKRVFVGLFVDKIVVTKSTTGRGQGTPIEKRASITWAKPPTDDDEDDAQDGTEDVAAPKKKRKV

[3] = tested on: T3, phiC31 integrase (wild type, -8 ATG start) (Streptomyces phage phiC31); conditions: integration of pCMV-pur-attB into chicken DF-1 genome pseudo-attP sites; 103.8 colonies avg
T3 sequence: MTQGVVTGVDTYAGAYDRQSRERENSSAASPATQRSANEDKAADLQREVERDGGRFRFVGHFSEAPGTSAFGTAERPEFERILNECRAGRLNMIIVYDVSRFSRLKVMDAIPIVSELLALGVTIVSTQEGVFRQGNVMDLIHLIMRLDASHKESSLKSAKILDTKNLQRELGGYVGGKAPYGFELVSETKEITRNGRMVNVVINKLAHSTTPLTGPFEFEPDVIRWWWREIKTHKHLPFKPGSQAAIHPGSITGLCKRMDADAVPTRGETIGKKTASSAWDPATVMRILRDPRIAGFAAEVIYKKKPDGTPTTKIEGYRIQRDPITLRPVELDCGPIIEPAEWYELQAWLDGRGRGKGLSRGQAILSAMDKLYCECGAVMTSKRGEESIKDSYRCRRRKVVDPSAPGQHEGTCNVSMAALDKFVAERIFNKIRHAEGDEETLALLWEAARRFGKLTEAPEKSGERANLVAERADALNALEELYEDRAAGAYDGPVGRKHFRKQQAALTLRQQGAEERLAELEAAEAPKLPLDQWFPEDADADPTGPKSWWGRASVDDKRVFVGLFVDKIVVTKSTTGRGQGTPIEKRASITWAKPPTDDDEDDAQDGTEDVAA

[4] = tested on: T4, c-myc-NLS-int N-terminal MTQGVVT replaced with MAPAAKRLKLDSL (SEQ 59), NLS joined at -1 G (Streptomyces phage phiC31); conditions: DF-1 cells; 56.2 colonies avg
T4 sequence: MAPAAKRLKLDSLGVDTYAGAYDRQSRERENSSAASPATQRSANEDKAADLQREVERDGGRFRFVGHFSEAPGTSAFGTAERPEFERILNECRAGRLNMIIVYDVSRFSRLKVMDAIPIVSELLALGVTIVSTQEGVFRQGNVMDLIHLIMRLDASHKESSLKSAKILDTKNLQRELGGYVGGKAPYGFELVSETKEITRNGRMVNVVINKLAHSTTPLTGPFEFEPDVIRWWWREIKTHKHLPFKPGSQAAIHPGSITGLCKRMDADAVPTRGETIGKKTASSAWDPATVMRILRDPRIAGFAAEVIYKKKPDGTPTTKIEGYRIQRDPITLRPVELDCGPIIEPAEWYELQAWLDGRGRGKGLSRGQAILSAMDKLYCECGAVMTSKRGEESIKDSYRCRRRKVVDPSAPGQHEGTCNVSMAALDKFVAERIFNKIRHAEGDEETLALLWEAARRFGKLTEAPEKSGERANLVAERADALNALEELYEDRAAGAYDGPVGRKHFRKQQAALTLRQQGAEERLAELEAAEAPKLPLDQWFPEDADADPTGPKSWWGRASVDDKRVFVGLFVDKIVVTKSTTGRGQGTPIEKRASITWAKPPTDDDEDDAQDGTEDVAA

[5] = tested on: T5, NLS-int-1 N-terminal MTQGVVTG replaced with MEPKKKRK (SEQ 57), joined at +1 V (Streptomyces phage phiC31); conditions: DF-1 cells; 2.5 colonies avg, background level; reflects recombination activity, not binding
T5 sequence: T3 sequence with T2E, Q3P, G4K, V5K, V6K, T7R, G8K

[6] = tested on: T6, 3rdGTG-int (+1 start) (Streptomyces phage phiC31); conditions: DF-1 cells; 14 colonies avg
T6 sequence: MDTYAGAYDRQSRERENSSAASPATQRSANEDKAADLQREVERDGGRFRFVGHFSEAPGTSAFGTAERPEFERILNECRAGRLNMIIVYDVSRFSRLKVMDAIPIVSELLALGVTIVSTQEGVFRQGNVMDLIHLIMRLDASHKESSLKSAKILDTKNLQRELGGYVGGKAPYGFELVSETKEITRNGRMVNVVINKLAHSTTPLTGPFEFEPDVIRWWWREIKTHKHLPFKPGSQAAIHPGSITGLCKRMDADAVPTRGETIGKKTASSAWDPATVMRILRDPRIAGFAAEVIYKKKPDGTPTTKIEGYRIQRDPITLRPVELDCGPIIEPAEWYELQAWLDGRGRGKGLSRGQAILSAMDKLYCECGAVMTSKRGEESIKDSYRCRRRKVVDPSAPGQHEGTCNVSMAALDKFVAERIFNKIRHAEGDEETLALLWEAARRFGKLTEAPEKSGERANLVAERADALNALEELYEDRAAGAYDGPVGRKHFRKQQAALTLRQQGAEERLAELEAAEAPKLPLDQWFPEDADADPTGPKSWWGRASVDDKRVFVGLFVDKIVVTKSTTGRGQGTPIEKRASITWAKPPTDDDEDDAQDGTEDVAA

[7] = tested on: T7, 3rdGTG-int-NLS234 insertion PPKKKRKVE between G and S at position 234 (SEQ 61) (Streptomyces phage phiC31); conditions: DF-1 cells; 30 colonies avg
T7 sequence: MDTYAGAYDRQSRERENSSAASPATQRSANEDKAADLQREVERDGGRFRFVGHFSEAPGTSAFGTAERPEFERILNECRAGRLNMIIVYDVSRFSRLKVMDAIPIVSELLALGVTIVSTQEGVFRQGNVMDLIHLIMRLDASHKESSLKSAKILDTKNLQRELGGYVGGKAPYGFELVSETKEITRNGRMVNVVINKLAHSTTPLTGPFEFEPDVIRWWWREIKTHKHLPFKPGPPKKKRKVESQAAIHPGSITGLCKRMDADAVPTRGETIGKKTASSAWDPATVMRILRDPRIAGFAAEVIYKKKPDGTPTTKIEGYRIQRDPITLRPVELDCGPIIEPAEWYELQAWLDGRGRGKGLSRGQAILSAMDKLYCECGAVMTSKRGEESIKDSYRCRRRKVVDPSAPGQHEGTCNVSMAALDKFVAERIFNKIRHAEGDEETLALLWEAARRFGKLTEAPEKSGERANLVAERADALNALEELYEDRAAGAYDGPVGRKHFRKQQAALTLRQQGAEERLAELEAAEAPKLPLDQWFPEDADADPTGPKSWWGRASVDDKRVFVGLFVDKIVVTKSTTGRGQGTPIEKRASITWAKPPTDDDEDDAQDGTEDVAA

[8] = tested on: T8, int-NLS234 insertion PPKKKRKVE between G and S at position 234 (SEQ 61) (Streptomyces phage phiC31); conditions: DF-1 cells; 84 colonies avg
T8 sequence: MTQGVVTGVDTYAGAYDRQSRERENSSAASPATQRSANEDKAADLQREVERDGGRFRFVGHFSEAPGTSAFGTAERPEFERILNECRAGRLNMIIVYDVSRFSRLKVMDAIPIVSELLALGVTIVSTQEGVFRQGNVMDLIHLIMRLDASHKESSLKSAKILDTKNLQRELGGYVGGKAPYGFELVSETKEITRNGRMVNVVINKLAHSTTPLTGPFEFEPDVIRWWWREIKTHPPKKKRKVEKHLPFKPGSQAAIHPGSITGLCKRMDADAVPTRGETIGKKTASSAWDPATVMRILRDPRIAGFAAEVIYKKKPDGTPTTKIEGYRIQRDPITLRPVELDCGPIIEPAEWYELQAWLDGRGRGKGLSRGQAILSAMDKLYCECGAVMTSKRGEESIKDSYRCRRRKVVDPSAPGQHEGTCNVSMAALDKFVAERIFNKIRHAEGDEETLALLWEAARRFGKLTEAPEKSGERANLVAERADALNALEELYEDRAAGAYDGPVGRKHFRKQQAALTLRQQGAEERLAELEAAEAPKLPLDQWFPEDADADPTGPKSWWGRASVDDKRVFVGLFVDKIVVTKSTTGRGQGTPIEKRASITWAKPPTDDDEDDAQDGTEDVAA

phiC31 attB (donor plasmid) was tested. Which activity (fold over no integrase) [1] did it give?
Its activity (fold over no integrase) is 2.3.

And the activity (fold over no integrase) [2]?
Its activity (fold over no integrase) is 3.8.

And the activity (fold over no integrase) [3]?
The activity (fold over no integrase) was 39.9.

And the activity (fold over no integrase) [4]?
Its activity (fold over no integrase) is 21.6.

What about the activity (fold over no integrase) [5] of the same substance?
The activity (fold over no integrase) was 1.

What about the activity (fold over no integrase) [6] of the same substance?
Its activity (fold over no integrase) is 5.4.

And the activity (fold over no integrase) [7]?
Its activity (fold over no integrase) is 11.5.

And the activity (fold over no integrase) [8]?
The activity (fold over no integrase) was 32.3.
